The text below walks through data of article PMC5570508 (2017).

Usually Kd stands for the concentration at which binding is half-saturated. High values mean lower affinity, low ones higher affinity.

In test [1] the target is PfEMP1 ATS-Core of variant PFF0845c (P. falciparum). As to the kind of experiment: NMR; 50 mM NaCl, 25°C.
Another test deals with α17 L1709A. As to the kind of experiment: FP.
For the next test, the target named is α17 Q1720A. As to the kind of experiment: FP.
In the next test the target is α17 D1722K. As to the kind of experiment: FP.
The target in a further test is α17 D1723K. The experiment in a line: FP.
The target of another test is α17 Y1713A. As to the kind of experiment: FP.
The next test has as its target α17 F1716A. The experiment in a line: FP.
A further test concerns the target α17 Q1717A. The experiment in a line: FP.
A further test deals with α17 F1718A. As to the kind of experiment: FP.

B1: spectrin α chain domain 17 (domain or fragment)
chain: AHHEKLKEAYALFQFFQDLDDEESWIEEKLIRVSSQDYGRDLQGVQNLLKKHKRLEGELVAHEPAIQNVLDMAEKLKDKAAVGQEEIQLRLAQFVEHWEKLKELAKARGLKLEESLEYLQFMQNA
B1 displayed a dissociation constant Kd in test [1] of 350 µM.

B2: PfEMP1 ATS of variant PFF0845c, fluorescently labeled (H159C) (domain or fragment)
chain: KKKTKSTIDLLRVINIPKGDYGIPTMKSKNRYVPYKSGQYNGKKYIYMEGDESDDYTYIGDISSSDITSSESEYEDIDINNIYPYKSPKYKTLIDVVLEPSKRDTFNTQSDIPSDTSTNKFTDNEWNQLKQDFISNISQNSQMDLPKNNISGNIQMDTCPHVNILDDSMQEKPFITSIHDRDLHNGEEVTYNINLDDHKNMNFSTNHDNIPPKNDQNDLYTGIDLINDSISGNHNVNIYDELLKRKENELFGTNHTKHTTTNIVAKQTHNDPIVNQINLFHKWLDRHRNMCEQWDKNKKEELLDKLNEEWNKENKNNSNVTDTNGENNITRVLNSDVSIQIDMNSKPI
modifications: fluorescein (5-FAM; fluorescein-5-maleimide) on the introduced cysteine C159
For the molecule B2, the Kd was found to be 140 µM with α17 L1709A; 41 µM with α17 Q1720A; 60 µM with α17 D1722K; 35 µM with α17 D1723K; 63 µM in the test with α17 Y1713A; 300 µM with α17 F1716A. Besides, the Kd amounted to 28 µM with α17 Q1717A and 63 µM with α17 F1718A.
